Test results as given in paper doi:10.1101/2020.02.18.954917 (bioRxiv, 2020).

Molecular target: the molecule itself
Test: SEC + AUC

B1: ΔNterm-Them1 (Mus musculus Thioesterase superfamily member 1, thioesterase domains and START domain, residues 43-594) (enzyme, UniProt Q8VHQ9 43-594, looked up)
chain: YRNPTEVQMSQLVLPCHTNHRGELSIGQLLKWIDTTACLSAERHAGCPCVTASMDDIYFDHTISVGQVVNIKAKVNRAFNSSMEVGIQVVSEDLCSEKQWSVCKALATFVAHRELSKVKLKQVIPLTEEEKTEHGVAAERRRMRLVYADTIKDLLTHCVIQDDLDKDCSNMVPAEKTRVESVELVLPPHANHQGNTFGGQIMAWMENVATIAASRLCHAHPTLKAIEMFHFRGPSQVGDRLVLKAIVNNAFKHSMEVGVCVEAYRQEAETQRRHINSAFMTFVVLDKDDQPQKLPWIRPQPGEGERRYREASARKKIRLDRKYLVSCKQAEVALSVPWDPSNQVYLSYYNVSSLKTLMAKDNWVLSVEISEVRLYILEEDFLSFHLEMVVNVDAAQVFQLLSDLRRRPEWDKHYRSVELVQQVDEDDAIYHVISPALSGNTKPQDFVILASRRKPCDNGDPYVIALRSVTLPTHHETPEYQRGETLCSGFCLWREGDQMTKVSYYNQATPGFLNYVTTNVSGLSSEFYNTFKACESFLLDNRNDLAPSLQTL
  stoichiometry N: 3
